The target in assay [1] is HA glycoprotein of A/chicken/Korea/es/2003 (H5N1, clade 2.5) (influenza A virus A/chicken/Korea/es/2003 (H5N1)).
Assay [2] addresses HA glycoprotein of A/common magpie/Hong Kong/5052/2007 (H5N1, clade 2.3.2.1) (influenza A virus A/common magpie/Hong Kong/5052/2007 (H5N1)).
For assay [3], the target named is HA glycoprotein of A/Turkey/65596/2006 (H5N1, clade 2.2.1) (influenza A virus A/Turkey/65596/2006 (H5N1)).
The target in assay [4] is HA glycoprotein of A/Shenzhen/406H/2006 (H5N1, clade 2.3.4) (influenza A virus A/Shenzhen/406H/2006 (H5N1)).
Assay [5] deals with HA glycoprotein of A/chicken/Guangxi/12/2004 (H5N1, clade 2.4) (influenza A virus A/chicken/Guangxi/12/2004 (H5N1)).
The target in assay [6] is HA glycoprotein of A/chicken/Henan/16/2004 (H5N1, clade 8) (influenza A virus A/chicken/Henan/16/2004 (H5N1)).
Assay [7] addresses HA glycoprotein of A/goose/Shantou/1621/2005 (H5N1, clade 9) (influenza A virus A/goose/Shantou/1621/2005 (H5N1)).
Assay [8] deals with HA glycoprotein of A/blackbird/Hunan/1/2004 (H5N1, clade 6) (influenza A virus A/blackbird/Hunan/1/2004 (H5N1)).
Assay [9] concerns the target HA glycoprotein of A/Indonesia/5/2005 (H5N1, clade 2.1.3.2) (influenza A virus A/Indonesia/5/2005 (H5N1)).
Assay [10] addresses HA glycoprotein of A/Hong Kong/156/1997 (H5N1, clade 0) (influenza A virus A/Hong Kong/156/1997 (H5N1)) (UniProt O56140).
The target of assay [11] is HA glycoprotein of A/duck/Guangxi/1378/2004 (H5N1, clade 5) (influenza A virus A/duck/Guangxi/1378/2004 (H5N1)).
For assay [12], the target named is HA glycoprotein of A/goose/Guiyang/337/2006 (H5N1, clade 4) (influenza A virus A/goose/Guiyang/337/2006 (H5N1)).
The target of assay [13] is HA glycoprotein of A/silky chicken/Hong Kong/SF189/2001 (H5N1, clade 3) (influenza A virus A/silky chicken/Hong Kong/SF189/2001 (H5N1)).
For assay [14], the target named is HA glycoprotein of A/Thailand/(KAN-1)/2004 (H5N1, clade 1) (influenza A virus A/Thailand/(KAN-1)/2004 (H5N1)).
In assay [15] the target is HA glycoprotein of A/Chicken/Vietnam /NCVD-16/08 (H5N1, clade 7.1) (influenza A virus A/Chicken/Vietnam/NCVD-16/08 (H5N1)).
Assay [16] has as its target HA glycoprotein of A/Chicken/Vietnam/NCVD-03/08 (H5N1, clade 7.1) (influenza A virus A/Chicken/Vietnam/NCVD-03/08 (H5N1)).

IC50 of neutralisation of pseudovirus bearing this HA data for 3 substances are collected here from publication PMC4686829.

As to 65C6, full-length human IgG1 (antibody), the IC50 of neutralisation of pseudovirus bearing this HA in [1] worked out at 0.005 µg/mL; in assay [2], 0.034 µg/mL; in assay [3], 0.002 µg/mL; in assay [4], 0.02 µg/mL; in assay [5], 0.005 µg/mL; in assay [6], 0.014 µg/mL. Besides, the IC50 of neutralisation of pseudovirus bearing this HA was determined as 0.007 µg/mL in assay [7]; 0.007 µg/mL in assay [8]; 0.004 µg/mL in [9]; 0.005 µg/mL in assay [10]; 0.005 µg/mL in assay [11]; 0.025 µg/mL in assay [12]. Further, the values for the IC50 of neutralisation of pseudovirus bearing this HA in assay [13] and in assay [14] were 0.011 µg/mL and 0.029 µg/mL, respectively.

Consider “100F4, full-length human IgG1 (antibody)”, for which the IC50 of neutralisation of pseudovirus bearing this HA in assay [1] is 0.016 µg/mL; in assay [2] it was 0.066 µg/mL; in [3], 0.004 µg/mL; in assay [4], 0.052 µg/mL; in [5] it was 0.015 µg/mL; in assay [6], 0.036 µg/mL. Besides, the IC50 of neutralisation of pseudovirus bearing this HA in assay [7] worked out at 0.011 µg/mL; in assay [8], 0.033 µg/mL; in assay [9] it was 0.013 µg/mL; in [10], 0.05 µg/mL; in assay [11], 0.021 µg/mL; in assay [12] it was 0.019 µg/mL. Besides, the IC50 of neutralisation of pseudovirus bearing this HA in assay [13] stood at 0.022 µg/mL; in assay [14], 0.067 µg/mL.

On to “AVFluIgG03, full-length human IgG1 (antibody)”, for which the IC50 of neutralisation of pseudovirus bearing this HA in assay [3] was 1.86 µg/mL; in [4], 0.002 µg/mL; in assay [15], 0.03 µg/mL; in [7] it was 0.018 µg/mL; in assay [8] it was 0.004 µg/mL; in assay [9], 4.75 µg/mL. The IC50 of neutralisation of pseudovirus bearing this HA in assay [10] stood at 0.008 µg/mL; in [11], 0.009 µg/mL; in assay [13], 0.069 µg/mL; in [16], 0.069 µg/mL.
